# Patent publication US12227551B2, “Membrane bound IL12 compositions and methods for tunable regulation” (Obsidian Therapeutics, Inc., priority 2018, dated 2025)
# B1: OT-001356: CD19 CAR; stop; IRES; secreted IL12 (p40 23-328; (G4S)3; p35 57-253); nucleic acid SEQ ID NO: 482 (protein)
# chain: IWELKKDVYVVELDWYPDAPGEMVVLTCDTPEEDGITWTLDQSSEVLGSGKTLTIQVKEFGDAGQYTCHKGGEVLSHSLLLLHKKEDGIWSTDILKDQKEPKNKTFLRCEAKNYSGRFTCWWLTTISTDLTFSVKSSRGSSDPQGVTCGAATLSAERVRGDNKEYEYSVECQEDSACPAAEESLPIEVMVDAVHKLKYENYTSSFFIRDIIKPDPPKNLQLKPLKNSRQVEVSWEYPDTWSTPHSYFSLTFCVQVQGKSKREKKDRVFTDKTSATVICRKNASISVRAQDRYYSSSWSEWASVPCSGGGGSGGGGSGGGGSRNLPVATPDPGMFPCLHHSQNLLRAVSNMLQKARQTLEFYPCTSEEIDHEDITKDKTSTVEACLPLELTKNESCLNSRETSFITNGSCLASRKTSFMMALCLSSIYEDLKMYQVEFKTMNAKLLMDPKRQIFLDQNMLAVIDELMQALNFNSETVPQKSSLEEPDFYKTKIKLCILLHAFRIRAVTIDRVMSYLNASGS
# Key:
# [1] = tested on: phospho-STAT4 in GFP+ T cells; test: Transactivation: phospho-STAT4 in GFP+ CAR-negative T cells after 1 hour co-culture with CAR-mbIL12 T cells, flow cytometry (Example 6; Table 20); assay type: cell-based, human
# Experimental: (§1) Membrane bound IL12 (mbIL12) was expressed in tandem with a CD19-CAR and tested in primary human T cells. On day 0, primary human T cells were stimulated with Dynabeads (T-expander CD3/CD28) at a 3:1 bead:cell ratio in media containing 10% fetal bovine serum (FBS). The next day, lentivirus with mbIL12 in tandem with a CD19-CAR construct was added in the presence of reduced serum (5% FBS). After 7 days of T cell expansion, increasing numbers of CAR+ T cells were cocultured with 10,000 GFP+, CAR-negative T cells. At the end of 1 hour of co-culture, the phospho-STAT4 levels within the GFP+ T cells were quantitated by flow cytometry using reagents and methods from BD. To determine the relative amount of IL12 activity that had accumulated in the T cell supernatants during the hour-long co-culture, cell supernatants from the co-culture were transferred to a new plate of GFP+ T cells and incubated for 1 hour. Phospho-STAT4 levels were measured in the GFP+ T cells incubated with the supernatants from the original co-culture. The transactivation ([…] geometric mean fluorescence (MFI) on GFP+ cells in co-culture) and the bystander effect (pSTAT4 geometric MFI on GFP+ T cells in 1 hour supernatants) for a CAR-IL12+:GFP+ ratio of 64 are shown in Table 20.
# (§2) The transactivation (pSTAT4 geometric mean fluorescence (MFI) on GFP+ cells in co-culture) and the bystander effect (pSTAT4 geometric MFI on GFP+ T cells in 1 hour supernatants) for the constructs at different ratios are summarized below. For OT-001407, when (a) the CAR-IL12+:GFP+ ratio was 32, the transactivation was 1711 and the bystander effect was −1680, (b) the CAR-IL12+:GFP+ ratio was 16, the transactivation was 1768 and the bystander effect was −1632, (c) the CAR-IL12+:GFP+ ratio was 8, the transactivation was 1433 and the bystander effect was −1603, (d) the CAR-IL12+:GFP+ ratio was 4, the transactivation was 1195 and the bystander effect was −1860, and (e) the CAR-IL12+:GFP+ ratio was 2, the transactivation was 1101 and the bystander effect was −1800. For OT-001356, when (a) the CAR-IL12+:GFP+ ratio was 73.9, the transactivation was 6452 and the bystander effect was −2617, (b) the CAR-IL12+:GFP+ ratio was 37, the transactivation was 6935 and the bystander effect was −1404, (c) the CAR-IL12+:GFP+ ratio was 18.5, the transactivation was 6417 and the bystander effect was −226, (d) the CAR-IL12+:GFP+ ratio was 9.2, the transactivation was 5568 and the bystander effect was −86, (e) the CAR-IL12+:GFP+ ratio was 4.6, the transactivation was 4374 and the bystander effect was −518, and (f) the CAR-IL12+:GFP+ ratio was 2.3, the transactivation was 2839 and the bystander effect was −1093. For OT-001895, when (a) the CAR-IL12+:GFP+ ratio was 34.1, the transactivation was 7699 and the bystander effect was −3724, (b) the CAR-IL12+:GFP+ ratio was 17.1, the transactivation was 7718 and the bystander effect was −2996, (c) the CAR-IL12+:GFP+ ratio was 8.5, the transactivation was 8200 and the bystander effect was −1178, (d) the CAR-IL12+:GFP+ ratio was 4.3, the transactivation was 7172 and the bystander effect was −277, (e) the CAR-IL12+:GFP+ ratio was 2.1, the transactivation was 6095 and the bystander effect was −238, and (f) the CAR-IL12+:GFP+ ratio was 1.1, the transactivation was 4498 and the bystander effect was −136. For OT-002011, when (a) the CAR-IL12+:GFP+ ratio was 75.8, the transactivation was 8086 and the bystander effect was −3531, (b) the CAR-IL12+:GFP+ ratio was 37.9, the transactivation was 8031 and the bystander effect was −2884, (c) the CAR-IL12+:GFP+ ratio was 18.9, the transactivation was 8324 and the bystander effect was −1376, (d) the CAR-IL12+:GFP+ ratio was 9.5, the transactivation was 7765 and the bystander effect was −1133, (e) the CAR-IL12+:GFP+ ratio was 4.7, the transactivation was 6682 and the bystander effect was −566, and (f) the CAR-IL12+:GFP+ ratio was 2.4, the transactivation was 5190 and the bystander effect was −642. […]
# [2] = tested on: T cells; test: Percentage of CAR positive cells after 10 days expansion (Example 7); assay type: cell-based; conditions: T cells expanded for 10 days
# [3] = tested on: phospho-STAT4 in GFP+ T cells; test: Bystander effect: phospho-STAT4 in GFP+ T cells incubated 1 hour with co-culture supernatants, flow cytometry (Example 6; Table 20); assay type: cell-based, human
# Experimental: as §1, §2
# [4] = Plasma IL12 and IFNgamma levels (Example 10; Table 36); assay type: in vivo, NSG mice; conditions: day 14 post T cell transfer; 1 million CAR+ T cells
# Experimental: To test in vivo anti-tumor activity, experiments were performed in NSG mice. Nalm6 cells were transfected with Redifect Red-Fluc (Perkin Elmer) under selection using Puromycin for ˜2 months to generate a line that stably expresses the luciferase reporter; thereafter named Nalm6-Luc. Ten days before tumor implantation, Nalm6-Luc cells were thawed and cultured in puromycin-containing media. On day 0, cells were counted, resuspended in PBS and injected into NSG mice via tail vein. On day 6, mice were imaged for bioluminescent intensity (BLI) and sorted into groups based on their tumor size ensure that all groups had the same sized tumors. Human T cells were transduced with one of the following constructs as shown in the study design in Table 33:
# Thus, anti-tumor efficacy (Table 34) appears to correlate with plasma IL12 and IFNgamma levels.
molecule,measurement,setting,value
B1,transactivation (pSTAT4 geometric MFI on GFP+ cells in co-culture),[1]; CAR-IL12+:GFP+ ratio 2.3,2839
same,transactivation (pSTAT4 geometric MFI on GFP+ cells in co-culture),[1]; CAR-IL12+:GFP+ ratio 4.6,4374
same,transactivation (pSTAT4 geometric MFI on GFP+ cells in co-culture),[1]; CAR-IL12+:GFP+ ratio 9.2,5568
same,transactivation (pSTAT4 geometric MFI on GFP+ cells in co-culture),[1]; CAR-IL12+:GFP+ ratio 18.5,6417
same,transactivation (pSTAT4 geometric MFI on GFP+ cells in co-culture),[1]; CAR-IL12+:GFP+ ratio 37,6935
same,transactivation (pSTAT4 geometric MFI on GFP+ cells in co-culture),[1]; CAR-IL12+:GFP+ ratio 73.9,6452
same,Transactivation,"[1]; CAR-IL12+:GFP+ ratio of 64, pSTAT4 geometric MFI on GFP+ cells, 1 hour co-culture",6452
same,Percentage of CAR positive cells,[2],45.3%
same,bystander effect (pSTAT4 geometric MFI on GFP+ T cells in 1 hour supernatants),[3]; CAR-IL12+:GFP+ ratio 2.3,−1093
same,bystander effect (pSTAT4 geometric MFI on GFP+ T cells in 1 hour supernatants),[3]; CAR-IL12+:GFP+ ratio 4.6,−518
same,bystander effect (pSTAT4 geometric MFI on GFP+ T cells in 1 hour supernatants),[3]; CAR-IL12+:GFP+ ratio 9.2,−86
same,bystander effect (pSTAT4 geometric MFI on GFP+ T cells in 1 hour supernatants),[3]; CAR-IL12+:GFP+ ratio 18.5,−226
same,bystander effect (pSTAT4 geometric MFI on GFP+ T cells in 1 hour supernatants),[3]; CAR-IL12+:GFP+ ratio 37,−1404
same,bystander effect (pSTAT4 geometric MFI on GFP+ T cells in 1 hour supernatants),[3]; CAR-IL12+:GFP+ ratio 73.9,−2617
same,Day 14 Plasma IFNgamma Levels,[4],"13,344 pg/mL"
same,Day 14 Plasma IL10 Levels,[4],6.9 pg/mL
same,Day 14 Plasma IL 12 Levels,[4],"2,434 pg/mL"
